{
  "source": "patent US20200197485A1",
  "molecular_target": "Siglec-10Fc (human) (UniProt Q96LC7)",
  "sequence (Q96LC7 17-546)": "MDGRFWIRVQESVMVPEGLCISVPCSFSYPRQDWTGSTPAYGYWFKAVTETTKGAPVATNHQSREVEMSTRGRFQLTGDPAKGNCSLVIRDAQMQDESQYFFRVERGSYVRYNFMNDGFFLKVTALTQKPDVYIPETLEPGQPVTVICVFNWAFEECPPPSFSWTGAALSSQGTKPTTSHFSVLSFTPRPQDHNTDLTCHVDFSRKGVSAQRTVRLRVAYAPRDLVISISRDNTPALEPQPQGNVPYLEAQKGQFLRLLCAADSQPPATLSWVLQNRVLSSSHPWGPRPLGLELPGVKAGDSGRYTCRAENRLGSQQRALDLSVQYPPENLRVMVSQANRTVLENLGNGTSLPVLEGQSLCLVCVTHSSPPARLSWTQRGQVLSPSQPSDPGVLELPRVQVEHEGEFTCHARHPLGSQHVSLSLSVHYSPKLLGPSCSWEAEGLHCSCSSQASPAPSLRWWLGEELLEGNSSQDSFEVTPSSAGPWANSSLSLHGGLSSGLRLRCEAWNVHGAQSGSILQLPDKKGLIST",
  "assay": "Biacore (SPR): value printed under the KD line for the control Fc with Siglec-10Fc. No curve is drawn for the control Fc.",
  "data": [
    {"substance": "control Fc", "values": [
      {"measurement": "Kd", "result": 16.2, "unit": "µM"}
    ]}
  ]
}
